From article PMC7525159 come the findings set out here.

This series deals with T1, RegX3 (K204A) K204A (UniProt P9WGL9).
T1 sequence: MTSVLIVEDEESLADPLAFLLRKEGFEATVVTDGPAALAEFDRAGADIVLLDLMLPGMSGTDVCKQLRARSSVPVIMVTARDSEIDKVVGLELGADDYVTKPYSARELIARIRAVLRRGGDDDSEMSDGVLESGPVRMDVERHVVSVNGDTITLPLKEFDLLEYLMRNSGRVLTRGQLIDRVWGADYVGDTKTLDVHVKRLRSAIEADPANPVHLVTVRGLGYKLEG
Put plainly: EMSA. For orientation: Mobility shift assays separate free from complexed probe on a gel.

Take “CAGCTTTCTTTGCGCTAATTTAGGCGTACTCACAGCATGGGATGACCTGGGCAAATACCTCATCTATCCGCCCGGGATAGCATGCGGCGCAGGCGGCGAATGCGGCGCAGATGAACGCAGAGTTAATTCTCACGCAACGGTCCGATATTG (double strand) [whiB3 promoter -307 to -157 (WT)]”: the binding result was “no binding”.
